Assay results as given in patent US20040018204A1.

Target: mouse B6 MHC class I antigens (H-2b: D^b or K^b) on the surface of RMA-S cells (mouse)
Experiment: binding of 9mer peptides within p117-139 to mouse B6 (H-2b) class I antigens; RMA-S assay as for Table XLVII

In order of falling Binding Affinity to Mouse MHC Class I:
1. NAPYLPSCL [WT1 peptide P130-138 (…)]  79%
2. PSQASSGQA [WT1 peptide P117-125 (…)]  2%
3. SQASSGQAR [WT1 peptide P118-126 (…)]  2%
4. QASSGQARM [WT1 peptide P119-127 (…)]  2%
5. MFPNAPYLP [WT1 peptide P127-135 (…)]  2%
6. ASSGQARMF [WT1 peptide P120-128 (…)]  1%
7. SSGQARMFP [WT1 peptide P121-129 (…)]  1%
8. QARMFPNAP [WT1 peptide P124-132 (…)]  1%
9. ARMFPNAPY [WT1 peptide P125-133 (…)]  1%
10. FPNAPYLPS [WT1 peptide P128-136 (…)]  1%
11. PNAPYLPSC [WT1 peptide P129-137 (…)]  1%
12. APYLPSCLE [WT1 peptide P131-139 (…)]  1%

Target: mouse B6 MHC class I antigens (H-2b: D^b or K^b) on the surface of RMA-S cells (mouse)
Experiment: RMA-S class I stabilisation, peptide 25 ug/ml, flow cytometry with FITC anti-D^b or anti-K^b, MFI against medium alone

In order of falling Binding Affinity to Mouse MHC Class I (% increase of class I on RMA-S cells):
1. SCLESQPAI [WT1 peptide p136-144 human (…)]  52%
2. CMTWNQMNL [WT1 peptide p235-243 (…)]  33.6%
3. NLYQMTSQL [WT1 peptide p225-233 (…)]  5.8%
4. ALLPAVPSL [WT1 peptide p10-18 human (…)]  2.2%
5. GCNKRYFKL [WT1 peptide p329-337 (…)]  1.2%
6. QMTSQLECM [WT1 peptide p228-236 (…)]  1.2%
7. NQMNLGATL [WT1 peptide p239-247 (…)]  1%
8. YSSDNLYQM [WT1 peptide p221-229 (…)]  0.8%
